System: KATO III cell line (human gastric cancer cells)
Assay: Cell viability test (same method as for Calu-6) in KATO III cells
Format: cell-based
Settings: average DAR of 2 to 3, read-out: EC/IC50 values for cell viability
Procedure: Human Calu-6 cells (manufacturer: Procell, product code: CL-327, human lung cancer cells) were resuscitated and seeded into a 96-well culture plate. The culture medium used was DMEM/F12 (manufacturer: Hyclone, product code: SH30023.01), supplemented with 10% FBS (manufacturer: Gibco, product code: 10099141). Each well contained 2,500 cells in 150 µl of medium. The plate was incubated at 37°C in a 5% CO2 incubator. Approximately 20 hours later, 50 µl of medium containing different antibody-drug conjugates were added to each well, setting the final drug concentrations at 0 to 100 nM across 12 dilution gradients (initial concentration: 100 nM; subsequent 5-fold serial dilutions across 10 gradients; last gradient containing no drug, and each sample was tested in duplicate wells). […] After a 2-minute reaction, fluorescence intensity was measured using a Tecan Spark instrument, following the reagent kit's recommended protocol. […] EC/IC50 values were calculated using four-parameter fitting.
Further, following the above examples, antibody-drug conjugates (ADCs) of Trastuzumab and Bemarituzumab conjugated with the linker-toxin MC-VAGGFG-PAB-Eribulin were prepared for validation. […] Activity was measured using the SK-BR-3 cell line (human breast cancer cells) and KATO III cell line (human gastric cancer cells).

B1: Bemarituzumab MC-VAGGFG-PAB-Eribulin: Bemarituzumab conjugated with the linker-toxin MC-VAGGFG-PAB-Eribulin (conjugate, chains of the INN, looked up)
VH: QVQLVQSGAEVKKPGSSVKVSCKASGYIFTTYNVHWVRQAPGQGLEWIGSIYPDNGDTSYNQNFKGRATITADKSTSTAYMELSSLRSEDTAVYYCARGDFAYWGQGTLVTVSS
VL: DIQMTQSPSSLSASVGDRVTITCKASQGVSNDVAWYQQKPGKAPKLLIYSASYRYTGVPSRFSGSGSGTDFTFTISSLQPEDIATYYCQQHSTTPYTFGQGTKLEIK
modifications: MC-VAGGFG-PAB-Eribulin
- IC50: 0.097 nM

Source: patent EP4778588A2, “ENZYMATICALLY CLEAVABLE LINKER AND LIGAND-ERIBULIN CONJUGATE CONTAINING SAME” (priority 2022, dated 2024)
